# Reference: publication doi:10.1101/2021.07.12.452090 (bioRxiv, 2021)
# B1: aCTLA-4.9 (antibody, V domains shown)
# VH: QVQLVESGGGVVQPGRSLRLSCAASGFTFSSFGMHWVRQAPGKGLEWVAVIWYDGRNKYYVDSVKGRFTISRDNSNNTLYLQMNSLRAEDTAVYYCARGEFFGEFFDYWGQGTLVTVSS
# VL: EIVLTQSPGTLSLSPGEGATLSCRASQSFSSNYLAWYQQKPGQAPRLLIYGASSRATGIPDRFSGSGSGTDFTLTISRLEPEDFAVYYCQQYGTSPFTFGPGTKVDIK
# B2: aCTLA-4.24 (antibody, V domains shown)
# VH: QVQLVESGGGVVQPGRSLRLSCAASGFTFSSHGMHWVRQAPGKGLEWVAVIWYDGSNKHYADSVKGRFTISRDNSKNTLYLQMNSLRAEDTAVYYCARGDILTGYYGYWGQGTLVTVSS
# VL: not shown
# B3: aCTLA-4.4 (antibody, V domains shown)
# VH: QVQLVESGGGVVQPGRSLRLSCAASGFTFSNYGMNWVRQAPGKGLEWVAVIWYDGRNKHYADSVKGRFTISRDNSKNTLYLQMNSLRAEDTAVYYCARGGDWGPYFDYWGQGTLVTVSS
# VL: not shown
# B4: aCTLA-4.1 (antibody, V domains shown)
# VH: QVQLVESGGGVVQPGRSLRLSCAASGFTFSRYGMHWVRQAPGKGLEWVAVIWYDGRNKYYADSVKGRFTISRDNSKNTLYLQMNSLRAEDTALYSCARAGELGPFDYWGQGTLVTVSS
# VL: EIVLTQSPGTLSLSPGERATLSCRASQSVSYLAWYQQKPGQAPRLLIYGASSRATGIPDRFSGSGSGTDFTLTISRLEPEDFAVYYCQQYGSSPWTFGQGTKVEIK
# B5: aCTLA-4.26 (antibody, V domains shown)
# VH: QVQLVESGGGVVQPGRSLRLSCAASGFTFSSYGMHWVRQAPGKGLEWVAVIWYDGSYKYYADSVKGRFTISRDDSKNTLYLQMSSLRAEDTAVYYCARAPHYAILTGYYEDYWGQGTLVTVSS
# VL: not shown
# Target: His-tagged human CTLA-4 antigen (Homo sapiens, UniProt P16410)
# Sequence (P16410 36-161): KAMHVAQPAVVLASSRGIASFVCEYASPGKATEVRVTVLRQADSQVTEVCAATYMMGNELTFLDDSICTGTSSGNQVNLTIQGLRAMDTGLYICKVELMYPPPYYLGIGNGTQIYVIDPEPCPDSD
row,Kd [nM],Binder
1,0.77,B1
2,6.8,B2
3,5.1,B3
4,4.6,B4
5,5.7,B5
